We go through five sequences from the supplement of paper PMC5998384.

Data set [1] has as its system HeLa Kyoto. Nature of the data set: thermal stability score vs G1/S (z-score of summed log2 fold changes over temperatures); higher = more thermally stable than in G1/S.
Data set [2] concerns HeLa Kyoto. The experiment in a line: solubility in G1/S (NP-40 vs SDS abundance) (log2 ratio); higher = more soluble. Particulars: cell cycle stage: G1/S.
Data set [3] relates to HeLa Kyoto. Nature of the data set: solubility change mitosis vs G1/S (difference of NP-40 vs SDS log2 ratios) (log2 ratio difference); higher = more soluble in mitosis.
The test system of data set [4] is HeLa Kyoto. The experiment in a line: melting temperature (median over replicates), in situ; higher = more thermally stable.
Where [5] appears, read: cell cycle stage: early G1 (4.5 h after nocodazole release).
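For melting temperature (median over replicates), in situ in this document: HeLa Kyoto cells synchronized by double thymidine or nocodazole block, proteins quantified by TMT10plex mass spectrometry, three independent biological replicates.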
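For solubility change mitosis vs G1/S (difference of NP-40 vs SDS log2 ratios) in this document: synchronized HeLa Kyoto cells (double thymidine block for G1/S, nocodazole release for mitosis), protein amounts in NP-40 versus SDS lysates quantified by mass spectrometry, three biological replicates.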
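For solubility in G1/S (NP-40 vs SDS abundance) in this document: HeLa Kyoto cells arrested at G1/S by double thymidine block, proteins quantified by TMT10plex mass spectrometry in mild NP-40 versus SDS extracts, three biological replicates.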
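For thermal stability score vs G1/S (z-score of summed log2 fold changes over temperatures) in this document: synchronized HeLa Kyoto cells, proteins quantified by TMT10plex mass spectrometry, three biological replicates, mitosis taken 0.5 h after nocodazole release, G1/S directly after double thymidine block.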

With “MSWLSSSQGVVLTAYHPSGKDQTVGNSHAKAGEEATSSRRYGQYTMNQESTTIKVMEKPPFDRSISQDSLDELSMEDYWIELENIKKSSENSQEDQEVVVVKEPDEGELEEEWLKEAGLSNLFGESAGDPQESIVFLSTLTRTQAAAVQKRVETVSQTLRKKNKQYQIPDVRDIFAQQRESKETAPGGTESQSLRTNENKYQGRDDEASNLVGEEKLIPPEETPAPETDINLEVSFAEQALNQKESSKEKIQKSKGDDATLPSFRLPKDKTGTTRIGDLAPQDMKKVCHLALIELTALYDVLGIELKQQKAVKIKTKDSGLFCVPLTALLEQDQRKVPGMRIPLIFQKLISRIEERGLETEGLLRIPGAAIRIKNLCQELEAKFYEGTFNWESVKQHDAASLLKLFIRELPQPLLSVEYLKAFQAVQNLPTKKQQLQALNLLVILLPDANRDTLKALLEFLQRVIDNKEKNKMTVMNVAMVMAPNLFMCHALGLKSSEQREFVMAAGTANTMHLLIKYQKLLWTIPKFIVNQVRKQNTENHKKDKRAMKKLLKKMAYDREKYEKQDKSTNDADVPQGVIRVQAPHLSKVSMAIQLTEELKASDVLARFLSQESGVAQTLKKGEVFLYEIGGNIGERCLDDDTYMKDLYQLNPNAEWVIKSKPL [ARHGAP18]”, the thermal stability score in the data set with HeLa Kyoto [1] (setting [5]) turned out to be 0.338; in the data set on HeLa Kyoto [1] (cell cycle stage: mitosis), 0.693. Besides, in the data set on HeLa Kyoto [2], the “solubility in G1/S (log2)” value came out at 0.188. Further, the “solubility change mitosis (log2)” value in the data set with HeLa Kyoto [3] is -0.128. Also, the melting temperature in the data set with HeLa Kyoto [4] (cell cycle stage: G1/S) and in the data set with HeLa Kyoto [4] (cell cycle stage: mitosis) was 50 °C each time.
As to “MSYDYHQNWGRDGGPRSSGGGYGGGPAGGHGGNRGSGGGGGGGGGGRGGRGRHPGHLKGREIGMWYAKKQGQKNKEAERQERAVVHMDERREEQIVQLLNSVQAKNDKESEAQISWFAPEDHGYGTEVSTKNTPCSENKLDIQEKKLINQEKKMFRIRNRSYIDRDSEYLLQENEPDGTLDQKLLEDLQKKKNDLRYIEMQHFREKLPSYGMQKELVNLIDNHQVTVISGETGCGKTTQVTQFILDNYIERGKGSACRIVCTQPRRISAISVAERVAAERAESCGSGNSTGYQIRLQSRLPRKQGSILYCTTGIILQWLQSDPYLSSVSHIVLDEIHERNLQSDVLMTVVKDLLNFRSDLKVILMSATLNAEKFSEYFGNCPMIHIPGFTFPVVEYLLEDVIEKIRYVPEQKEHRSQFKRGFMQGHVNRQEKEEKEAIYKERWPDYVRELRRRYSASTVDVIEMMEDDKVDLNLIVALIRYIVLEEEDGAILVFLPGWDNISTLHDLLMSQVMFKSDKFLIIPLHSLMPTVNQTQVFKRTPPGVRKIVIATNIAETSITIDDVVYVIDGGKIKETHFDTQNNISTMSAEWVSKANAKQRKGRAGRVQPGHCYHLYNGLRASLLDDYQLPEILRTPLEELCLQIKILRLGGIAYFLSRLMDPPSNEAVLLSIRHLMELNALDKQEELTPLGVHLARLPVEPHIGKMILFGALFCCLDPVLTIAASLSFKDPFVIPLGKEKIADARRKELAKDTRSDHLTVVNAFEGWEEARRRGFRYEKDYCWEYFLSSNTLQMLHNMKGQFAEHLLGAGFVSSRNPKDPESNINSDNEKIIKAVICAGLYPKVAKIRLNLGKKRKMVKVYTKTDGLVAVHPKSVNVEQTDFHYNWLIYHLKMRTSSIYLYDCTEVSPYCLLFFGGDISIQKDNDQETIAVDEWIVFQSPARIAHLVKELRKELDILLQEKIESPHPVDWNDTKSRDCAVLSAIIDLIKTQEKATPRNFPPRFQDGYYS [DHX36]”, the thermal stability score with HeLa Kyoto [1] (setting [5]) was found to be 0.36; in the data set with HeLa Kyoto [1] (cell cycle stage: mitosis), 0.349. Moreover, in the data set on HeLa Kyoto [2], the “solubility in G1/S (log2)” value was -0.25. The “solubility change mitosis (log2)” value with HeLa Kyoto [3] was -0.0322. In addition, the results for the melting temperature in the data set on HeLa Kyoto [4] (cell cycle stage: G1/S) and in the data set on HeLa Kyoto [4] (cell cycle stage: mitosis) were 50.8 °C and 51.5 °C, respectively.
“MSYGPLDMYRNPGPSGPQLRDFSSIIQTCSGNIQRISQATAQIKNLMSQLGTKQDSSKLQENLQQLQHSTNQLAKETNELLKELGSLPLPLSTSEQRQQRLQKERLMNDFSAALNNFQAVQRRVSEKEKESIARARAGSRLSAEERQREEQLVSFDSHEEWNQMQSQEDEVAITEQDLELIKERETAIRQLEADILDVNQIFKDLAMMIHDQGDLIDSIEANVESSEVHVERATEQLQRAAYYQKKSRKKMCILVLVLSVIILILGLIIWLVYKTK [STX12]”: the values for the thermal stability score in the data set on HeLa Kyoto [1] (setting [5]) and in the data set with HeLa Kyoto [1] (cell cycle stage: mitosis) were -1.25 and -1.93, respectively. Moreover, the “solubility in G1/S (log2)” value in the data set on HeLa Kyoto [2] was -0.121. Further, the “solubility change mitosis (log2)” value with HeLa Kyoto [3] is 0.0226. The melting temperature in the data set on HeLa Kyoto [4] (cell cycle stage: G1/S) was determined as 53.9 °C; in the data set on HeLa Kyoto [4] (cell cycle stage: mitosis) it was 54.3 °C.
Take “MSYIPGQPVTAVVQRVEIHKLRQGENLILGFSIGGGIDQDPSQNPFSEDKTDKGIYVTRVSEGGPAEIAGLQIGDKIMQVNGWDMTMVTHDQARKRLTKRSEEVVRLLVTRQSLQKAVQQSMLS [TAX1BP3]”: the thermal stability score with HeLa Kyoto [1] (setting [5]) amounted to 1.74; with HeLa Kyoto [1] (cell cycle stage: mitosis) it was 1.25. Also, the “solubility in G1/S (log2)” value in the data set with HeLa Kyoto [2] came to 0.277. In the data set with HeLa Kyoto [3], the “solubility change mitosis (log2)” value was determined as 0.0294. Further, the results for the melting temperature in the data set on HeLa Kyoto [4] (cell cycle stage: G1/S) and in the data set with HeLa Kyoto [4] (cell cycle stage: mitosis) were 49.1 °C and 49.2 °C, respectively.
Regarding “MSYPGYPPTGYPPFPGYPPAGQESSFPPSGQYPYPSGFPPMGGGAYPQVPSSGYPGAGGYPAPGGYPAPGGYPGAPQPGGAPSYPGVPPGQGFGVPPGGAGFSGYPQPPSQSYGGGPAQVPLPGGFPGGQMPSQYPGGQPTYPSQINTDSFSSYPVFSPVSLDYSSEPATVTQVTQGTIRPAANFDAIRDAEILRKAMKGFGTDEQAIVDVVANRSNDQRQKIKAAFKTSYGKDLIKDLKSELSGNMEELILALFMPPTYYDAWSLRKAMQGAGTQERVLIEILCTRTNQEIREIVRCYQSEFGRDLEKDIRSDTSGHFERLLVSMCQGNRDENQSINHQMAQEDAQRLYQAGEGRLGTDESCFNMILATRSFPQLRATMEAYSRMANRDLLSSVSREFSGYVESGLKTILQCALNRPAFFAERLYYAMKGAGTDDSTLVRIVVTRSEIDLVQIKQMFAQMYQKTLGTMIAGDTSGDYRRLLLAIVGQ [ANXA7]”, the thermal stability score in the data set with HeLa Kyoto [1] (setting [5]) worked out at 2.36; in the data set with HeLa Kyoto [1] (cell cycle stage: mitosis) it was 2. In the data set with HeLa Kyoto [2], the “solubility in G1/S (log2)” value is 0.437. The “solubility change mitosis (log2)” value in the data set with HeLa Kyoto [3] came out at 0.0486. For the same sequence, the melting temperature with HeLa Kyoto [4] (cell cycle stage: G1/S) came out at 50.7 °C; in the data set with HeLa Kyoto [4] (cell cycle stage: mitosis), 51.3 °C.
